In the RNAGym collection of RNA variant scans (doi:10.1073/pnas.2313332121):

B1: TPR t1 (parent)
chain: GACCAAUCUGCCCUCAGAGCUCGAGAACAUCUUCGGAUGCAGAGGAGGCAGGCUUCGGUGGCGCGAUAGCGCCAACGUCCUCAACCUCCAAUGCAUCCCACCACAUGAUGAUGCCUGAAGAGCCUUGGUUUUUUG

Variants of: B1
Experiment: polymerase ribozyme fitness, log enrichment relative to wild type (log ratio); higher = more active; in vitro selection for triplet polymerase activity
Summary of the method: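 Genotype fitness is the logarithm of its enrichment divided by wild-type enrichment, using inverse-variance-weighted averages of replicates. That logarithm is base 2. Enrichment was measured by Illumina sequencing of input and output libraries from one triplicate in vitro selection round, with frozen incubation at −7 °C, on PCR-built, transcribed mutant libraries of each subunit of a heterodimeric triplet polymerase ribozyme, retaining genotypes with ≥10 input reads and ≥1 read per output.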

First: GCCCAAUCUGCCCUAAGAGCUCGAGACCAUAUUCGGAUGCAGAGGAGGCAUGCUUCGGUGGCGCGAUAGCGCCAACGUCCUCACCCUCCAAUGCAUCCGACCACAUGAUGAUGCCUGAAGUGCCUUGGUGUUUUG [A2C C15A A27C C31A G51U A84C C99G A121U U130G]
Second: GACCAAUCUGCCCUCAGAGCUCGAGAACAUCUUCGGAUGCACAGGAGGCAGGCUCCGGUAGCGCGAUAGCGCCAACGUCCUCAACCUCCAAUGCAUCCCACCACAUGAUGAUGCCUGAAGAGCGUUGGUUUAUUG [G42C U55C G60A C124G U132A]
The “polymerase ribozyme fitness (log ratio)” value of the first is lower: -6.15 for the first, 0.349 for the second.

Compared with GACCAAUCUGCCCUCAGAGCUCGAGAACAUCUUCGGAUGCAGAGGAGGCAGAAUUCGGUGGCGCGAUAGCGCCAACAUCCUCAUCCUCCAAUGCAUCCCACCACAUGAUGAUGCCUGAAGAACCUUGGUUUUUUG [G52A C53A G77A A84U G122A], GACCAAUCUGCCCUCAGAGCUCGAGAACAUCUUCGGAUGCAGAGGAGUCAGGCUUCAGUGGCGCGAUAGCGCCAACGUCCUCAACCUCCAAUGCAUCCCAUCACAUGAUGAUGCCUGAAGAGCGUUGGUUUUUUG [G48U G57A C101U C124G] is higher in “polymerase ribozyme fitness (log ratio)” value: -2.24 for the first, 0.412 for the second.

Compared with GACCAAUCUGUCCUCAGAGCUCGAGAACAUCUUCGGAUGCGGAGGAGGCAGGCUUGGGUGGCGCGAUAGCGCCAACGUCCUCAACCUCCAAUGCAUCCCACCACAUGAUGAUGCCUGAAGAGCAUUGGUUUUUUG [C11U A41G C56G C124A], GACCAAUCUGCCCUCAGAGCUCGAGAACAUCUUCGGUUGCAGAGGAGGCAGGCUUCGCUGGCGCGAUAGCGCCAUCGUCUUCAACCUCCAAUACAUACCACCACAUGAUGAUGCCUGAAGAGCCUUGGUUUUUUG [A37U G58C A75U C80U G93A C97A] is lower in “polymerase ribozyme fitness (log ratio)” value: 1.04 for the first, -6.83 for the second.

GACCAAUCUGCCCUCAGAGCUCGAGAGCAUCUUCGGAUGCAGAGGAGGCAAGCUUCGGUGGCGCGAUAGCGCCAACGCCCUCAACCUCCAAUGCAUCCCACCACAUGAUGAUGCCUGAAGAGCCUUGGUUUUUUG [A27G G51A U78C] and GACCAAUCUGCCCUCAGAGCUCGAGAACCUCUUCGGAUGCAGAGGAGGCAGGCUUCGGUGUCGCGAUAGUGCCAGCGGCCUCAACCUCCAAUGCAUCCCACCACAUGAUGAUGCCUGAAGAGCCUUGGUUUUUUG [A29C G61U C70U A75G U78G] are within 0.2 log units of each other in “polymerase ribozyme fitness (log ratio)” value: -3.93 for the first, -3.77 for the second.

Going from GAACAAUCUGCCCUCAGAGCUCGAGAACAUCUUCGGAUGCAGAGGAGGCAGGCUUGGGUGACGCGAUAGCGCCAACGUCCACAACCUCCAAUGCAUCCCACCACAUGAUGAUGCCUGAAGAGCCUUGGUUCUUUG [C3A C56G G61A U81A U131C] to GACCAAUCUGCCCCCAGAGCUCGAGAACAUCUUCGGAUGCAGAGGAGGCUGGCUUCGGUGGCGCGAUAGCGCCAACGUCCUCAACCUCCAAUGCACCCCACCACAUGAUGAUGCUUGAAGUGCCUUGGUUUUUUG [U14C A50U U96C C115U A121U], the “polymerase ribozyme fitness (log ratio)” value falls from -4.05 to -5.13.

Going from GACCAAUCUGCCCUCAGAGCUCGAGAACAUCUUCGGAUGCAGAAGAGGCAGUCUUCGGUGGCUCGAUAGCGCCAACGUCCUCAACCACCAAUGCAUCCCACCACAUGAUGAUGCCUGAAGAGCCUUGGUUUUUUG [G44A G52U G63U U87A] to GACCAAUCUGCCCUCAGUGCUCGAGAACAACUUCGGGUGCAGAGGAGGCAGGCUUCGGUGGCGCGAUAGCGCCAACGUCCUCAACCUCCAAUGCAUCCCACCACAUGUUGAUGCCUGAAGAGCCUUGGUUUUUUG [A18U U30A A37G A108U], the “polymerase ribozyme fitness (log ratio)” value rises from -5.6 to -3.64.

First: GACCAAUCUGCCCUCAGAGCUCGAGAACAUCUUCGGAUCCAGAGGAGGCAGGCUUCGGUGGCGCGAUAACGCCAACGUCCUCAACCUCCAAUGCAUCCCACCACAUGAUGAUGCUUGAAAAGCCUUGGUUUUUUG [G39C G69A C115U G120A]
Second: GACCAAUCUGCCCUCAGAGCACGAGAACAUCUUCGGAUGCAGAGGAGGAAGGCUUCGGUGGCGCGAUAGCGCAAACGUCCUCAACCUCCAAUGCAUCCCACCACAUGAUGAUGCAUGAAGAGCCUUGGUGUUUUG [U21A C49A C73A C115A U130G]
The “polymerase ribozyme fitness (log ratio)” value of the first is lower: -6.08 for the first, 0.139 for the second.

GACCAAUCUGCCCUCAGAACUCGAGAACAUCUUCGGACGCAGAGGAGGCAGGCUUCGGUGGCUCGAUAGCGCCAACGUCCUCAACCUCCAAUGCAUCCCACCACAUGAUGAUGACUGAAGGGCCUUGGUUUUUUG [G19A U38C G63U C114A A121G] and GACCAAUCUGCCCUCAGAGCUCGAGAAAAUCUUCGGAUGCAGAUGAGGCAGGCUUCGGUGGCGCGAUAGCGCCAACGGCCUCAACCUCCAAUGCAUCCCACCACAUGAUGAUACCUGAAGAGCCUUGGUUUUUUG [C28A G44U U78G G113A] are the same in “polymerase ribozyme fitness (log ratio)” value: -4.24 for the first, -4.24 for the second.

Going from GACCAAUCUGCCCUCAGAGCUCGAGAACAUCUUCGGAUGCAGAGGAGGCAGGCUUCGGUGGCGCGAUAGCGCCUACGUCCUCAACCUCCAAUGCAUCCCACCACAUGAUAAUGCCUGAAGAGCCUUGGUUUUUUG [A74U G110A] to GACCAAUCUGCCCUCAGAGCUCGAGAACAUCUUCGGAUGCAGAGGAGGCAGGCUUCGGUGGCGCGAUAGCGCCAACGUCCUCAACCUCCAAUGCAUCCCACCAUAUGAUGAUGCAUGAAGAGCCUUGGUUUUUUG [C104U C115A], the “polymerase ribozyme fitness (log ratio)” value rises from -1.3 to 0.0102.

Going from GACCAAUCAGCCCUCAGAGCUCGAGGACAUCUUCGGAUGCAGAGGAGGCAGGCUUCGGUGGCGCGAUAGCGCCAACGUCCUCAACCUCCAAUGCAUCCCAGCAAAUGAUGAUGCCUGAAGAACCUUGGUUUUUUG [U9A A26G C101G C104A G122A] to GACCAAUCUGCCCUCAGAGCUCGAGAAUAUCUUCGGAUGCAGAGGAGGCAGGCUUCGGUGGCGCGAUAGCGCCAACGUCCUCAACCUCCAAUGCAUCCCACCACAUGAUGACGCCAGAAGAGCCUUGGUUUUUUG [C28U U112C U116A], the “polymerase ribozyme fitness (log ratio)” value rises from -3.48 to -1.82.

For GACCAAUCUGCCCUCAGAGCUCGAGAACAUCUUCGGAUGCAGAGGAGGCAGGCUUCGGUGGCGCGAUAGCGCCAACGUCCUCAACCUCCAAUGCAUCCCACCACAUGACGAUGCCUGUAGAGCCUUGGUUUUUUG [U109C A118U], the “polymerase ribozyme fitness (log ratio)” value was -4.34.
